Data: paper PMC12350838

Assays:
[1] = target: BoDV-1 L-P complex (one L-protein with a tetramer of P-protein) (Borna disease virus 1 (BoDV-1)); experiment: cryo-EM structure; Sample 1, RNA-free: co-expressed and co-purified L-P complex used immediately after elution, 0.33 mg/ml on grids; single particle analysis with 2D and 3D classification
[2] = target: BoDV-1 L-P complex (one L-protein with a tetramer of P-protein) (Borna disease virus 1 (BoDV-1)); experiment: cryo-EM structure; Sample 2, reaction conditions: L-P complex with 25 μM 23mer template RNA, 20 μM triphosphorylated 6mer primer, 1 mM SAM, 1 mM each NTP, 1 h on ice, diluted to 0.4 mg/ml; single particle analysis, re-extraction in a larger box and 2D classification
[3] = target: Borna disease virus 1 (BoDV-1) large protein (L-protein) (Borna disease virus 1 (BoDV-1)); experiment: cryo-EM structure; Sample 1, RNA-free: co-expressed and co-purified L-P complex used immediately after elution, 0.33 mg/ml on grids; single particle analysis with 2D and 3D classification
[4] = target: Borna disease virus 1 (BoDV-1) phosphoprotein (P-protein) (Borna disease virus 1 (BoDV-1)); experiment: as above

| Substance | percent of particles as tetramers [1] [%] | stoichiometry N [1] | percent of particles as dimers [2] [%] | stoichiometry N [2] | stoichiometry N (P-protein chains per L-protein) [3] | stoichiometry N [4] |
| --- | --- | --- | --- | --- | --- | --- |
| BoDV-1 L-P complex (one L-protein with a tetramer of P-protein) | 0.2 | 4 | 6 | 2 |  |  |
| Borna disease virus 1 (BoDV-1) phosphoprotein (P-protein) (natural protein) |  |  |  |  | 4 | 4 |
